Measured values from US20180050058.

How the values were obtained:
Test in all cases: pulldown
[1] = tested on: Hemagglutinin H5N3 A/duck/Hokkaido/167/2007 (HK-12) (Influenza A virus H5N3 (A/duck/Hokkaido/167/2007))
[2] = tested on: Hemagglutinins of 14 non-H5 subtypes (H1-H4, H6-H13, H15, H16; Table 1 strains) (Influenza A virus)
[3] = tested on: Hemagglutinin H5N1 A/Hong Kong/483/97 (H-12) (Influenza A virus H5N1 (A/Hong King/483/97))
[4] = tested on: Hemagglutinin H5N1 A/goose/Guiyang/337/2006 (G-8) (Influenza A virus H5N1 (A/goose/Guiyang/337/2006))
[5] = tested on: Hemagglutinin H5N2 A/American green-winged teal/California/HKWF609/2007 (A-17) (Influenza A virus H5N2 (A/American green-winged teal/California/HKWF609/2007))
[6] = tested on: Hemagglutinin H5N1 A/duck/Hunan/795/2002 (HN-8) (Influenza A virus H5N1 (A/duck/Hunan/795/2002))
[7] = tested on: Hemagglutinin H5N8 A/duck/NY191255-59/2002 (D-14) (Influenza A virus H5N8 (A/duck/NY191255-59/2002))
[8] = tested on: Hemagglutinin H5N1 A/Indonesia/5/2005 (IN-3) (Influenza A virus H5N1 (A/Indonesia/5/2005))
[9] = tested on: Hemagglutinin H5N1 A/Hubei/2010 (HB-16) (Influenza A virus H5N1 (A/Hubei/2010))
[10] = tested on: Hemagglutinin H5N1 A/bar-headed goose/Qinghai/14/2008 (Hg-2) (Influenza A virus H5N1 (A/bar-headed goose/Qinghai/14/2008))
[11] = tested on: Hemagglutinin H5N1 A/Egypt/2321-NAMRU3/2007 (EG-2) (Influenza A virus H5N1 (A/Egypt/2321-NAMRU3/2007))
[12] = tested on: Hemagglutinin H5N1 A/Japanese white-eye/Hong Kong/1038/2006 (JW-1) (Influenza A virus H5N1 (A/Japanese white-eye/Hong Kong/1038/2006))
[13] = tested on: Hemagglutinin H5N1 A/Cambodia/R0405050/2007 (C-8) (Influenza A virus H5N1 (A/Cambodia/R0405050/2007))
[14] = tested on: Hemagglutinin H5N1 A/Vietnam/1994/2004 (V-16) (Influenza A virus H5N1 (A/Vietnam/1994/2004))

TGCACGCAGGGGCCGCTTGGGTGGAGAGGC [A12]
Kd [1]: 3.5 nM
binding signal [2]: < 20%

AGTGGGTTCTTGGTGCATCCCAGGAGTACC [A1]
Kd [3]: 25.9 nM
binding signal [2]: < 20%

TGTCGGGGGAACAATCTGTGTTCGCTTGTC [A10]
Kd [4]: 5.74 nM
binding signal [2]: < 20%

GCGAGGTTGAGCGTGGGCTACTTGGTTCAT [A11]
binding signal [2]: < 20%
Kd [5]: 3.5 nM

CTTCTTCCACCCATGCCGGCTGGAGAATCC [A5]
binding signal [2]: < 20%
Kd [6]: 12.4 nM

TACTTATGTGGGCCGGTGCGTTTGCATTTT [A13]
Kd [7]: 0.7 nM
binding signal [2]: < 20%

TGGATTCACGCGGTCTCCGCCCTTGGGTGG [A6]
binding signal [2]: < 20%
Kd [8]: 14 nM

ATTGCAAGGAGAGGCTACGGCTATGACAGA [A8]
binding signal [2]: < 20%
Kd [9]: 9.4 nM

GGGGTCAACTTTTCCTTTGTCGGTTTT [A2]
Kd [10]: 13.4 nM
binding signal [2]: < 20%

TGGGTTTGGAAATTGGGACACAGTGGGGCG [A7]
binding signal [2]: < 20%
Kd [11]: 1.96 nM

TGGATTGCACGCAGGGGCCGCTTGGCTGTC [A9]
binding signal [2]: < 20%
Kd [12]: 7.84 nM

TCACGCTTTTGGTGCATGCAGAGTTTTGTG [A4]
binding signal [2]: < 20%
Kd [13]: 43.6 nM

TGGCAGTGGGTTGAGGGGAAGTCTTATTCG [A3]
Kd [14]: 7.57 nM
binding signal [2]: < 20%
